The experiment concerns the target T1, Full-length human histidine-tagged Ndel1 phosphorylated in vitro by both cdk5/p25 and cdk1/cyclin B (human, UniProt Q9GZM8 1-345).
T1 sequence: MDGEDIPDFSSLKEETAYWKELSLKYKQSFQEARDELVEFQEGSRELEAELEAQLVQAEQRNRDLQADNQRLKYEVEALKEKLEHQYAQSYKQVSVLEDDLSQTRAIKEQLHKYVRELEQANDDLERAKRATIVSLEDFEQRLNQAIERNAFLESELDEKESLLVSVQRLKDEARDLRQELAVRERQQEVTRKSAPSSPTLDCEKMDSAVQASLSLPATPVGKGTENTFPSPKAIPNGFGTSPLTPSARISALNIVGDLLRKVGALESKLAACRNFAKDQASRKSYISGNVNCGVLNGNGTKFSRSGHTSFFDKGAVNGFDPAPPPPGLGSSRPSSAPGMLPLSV
As to the kind of experiment: co-IP.

B1: Full-length Lis1, histidine tag cleaved (natural protein)
chain: MVLSQRQRDELNRAIADYLRSNGYEEAYSVFKKEAELDVNEELDKKYAGLLEKKWTSVIRLQKKVMELESKLNEAKEEFTSGGPLGQKRDPKEWIPRPPEKYALSGHRSPVTRVIFHPVFSVMVSASEDATIKVWDYETGDFERTLKGHTDSVQDISFDHSGKLLASCSADMTIKLWDFQGFECIRTMHGHDHNVSSVAIMPNGDHIVSASRDKTIKMWEVQTGYCVKTFTGHREWVRMVRPNQDGTLIASCSNDQTVRVWVVATKECKAELREHEHVVECISWAPESSYSSISEATGSETKKSGKPGPFLLSGSRDKTIKMWDVSTGMCLMTLVGHDNWVRGVLFHSGGKFILSCADDKTLRVWDYKNKRCMKTLNAHEHFVTSLDFHKTAPYVVTGSVDQTVKVWECR
Take B1: the “fold more Lis1 pulled down than by unphosphorylated Ndel1” value was around 5 fold.

Values taken from article PMC2542469 (The Journal of Cell Biology, 2008).
